The target in this assay is Fc protein. As to the kind of experiment: phage ELISA on coated Fc protein. Background: An ELISA detects its analyte on a solid surface through an enzyme-linked reagent.

This is an account of results in patent US20240209089A1.

Positions count from the first letter of the chain named.

B1: phage clone No. 37 (C37) (VHH)
VHH: QLQLVESGGGLVQAGGSLRLSCAASGLTFEDYAIGWFRQAPGKEREGISCIRIYDGNTYSAESVKGRFTISSDNAKNQVYLQINTLKPEDTAVYYCAAGSYYSCSVYPDYDMDYWGKGTLVTVSS
The molecule B1 yielded an OD450 of 0.11.

B2: phage clone No. 2 (C2) (VHH)
VHH: B1 VHH with L2V, A14P, L27F, F29L, E30D, D31Y
Regarding B2, the OD450 came to 0.149.

B3: phage clone No. 42 (C42) (VHH)
VHH: B1 VHH with L2V
With B3, the OD450 came to 0.111.

B4: phage clone No. 53 (S5) (VHH)
VHH: QVQLVESGGGLVQAGGSLRVSCAASGGTFSSTAMGWFRQAPGKEREFVAAISWSGGYTYYADSVRGRFTISRDNALNTVSLQMNSLKPEDTAVYYCAADISGLDTVAAGIFTEPNIDYWGKGTLVTVSS
B4 came in with an OD450 of 0.068.

B5: phage clone No. 27 (C27) (VHH)
VHH: QLQLVESGGGLVQPGGSLRLSCVVSGSIFAINTMGWYRQAPGKQRELVATMHSGGSTNYADSVKGRFTISRDAAPKTVYLQMNSLKPADTAVYYCHADDSGWGTVDSWGQGIQVTVSS
On to B5, for which the OD450 was 0.084.

B6: phage clone No. 55 (S7) (VHH)
VHH: QLQLVESGGGLVQPGGSLRLSCAASGSIFSINGMGWYRQAPGKQREAVAVITSGGKIDYLDSVKGRFTISRDSAKNTVALQMNSLKPEDTAVYYCNAYGDVRRGEVRWGQGTQVTVSS
In the case of B6, the OD450 turned out to be 0.059.

B7: phage clone No. 71 (S23) (VHH)
VHH: B6 VHH with L2V, A47L, V50A, I57T, R102Q
For the molecule B7, the OD450 came to 0.093.

B8: phage clone No. 46 (C46) (VHH)
VHH: QVQLVESGGGLVQAGGSLRLSCAASGVTFDDLAIGWFRQVPGKGREGVSTIGTSDGTAYYADSVKGRFTISSDNAKNTVYLQMNSLKPEDTAVYYCAVDLDYGLGSLLPMGYDYWGQGTQVTVSS
Take B8: the OD450 turned out to be 0.081.

B9: phage clone No. 77 (S29) (VHH)
VHH: QLQLVESGGGLVQPGGSLRLSCTASGIIFSINTMGWYRQAPGKQRELVADISSFGSTNYADSVKGRFTISRDNAKNSVYLQMNSLKPEDTAVYYCNAHDKGWGTVDSWGQGTQVTVSS
For B9, the OD450 was 0.08.

B10: phage clone No. 29 (C29) (VHH)
VHH: QVQLVESGGGLVQAGGSLRLSCVASGFTSDDYVIGWFRQAPGKEREGVSCISSSDGTTNYADSVKGRFTISSDNAKNTVYLQMNSLKPEDTAVYYCAADPMRVCPYSGTYYGILGFGTSGQGTQVTVSS
Regarding B10, the OD450 was 0.115.

B11: phage clone No. 54 (S6) (VHH)
VHH: QVQLVESGGGLVQPGGSLRLSCAVSGTIFSINTMGWYRQVPGKQRELVATITSSGSTKYADSVKGRFTVSRDNAKRTVFLQMDSLKPEDTAVYYCHANDVGWGTVNAWGQGTLVTVSS
With B11, the OD450 came out at 0.058.

B12: phage clone No. 24 (C24) (VHH)
VHH: QVQLVESGGGLVQPGGSLRLSCAASGPIFSINTMGWYRQAPGKQRELVATMHSTGSTNYADSVKGRFTISRDNAKKTVYLQMNSLKPDDTAVYYCHVDDTGWGTVDSWGQGIQVTVSS
B12 displayed an OD450 of 0.083.

B13: phage clone No. 70 (S22) (VHH)
VHH: B12 VHH with V2L, P27S, T100M, I112T
B13: the OD450 turned out to be 0.059.

B14: phage clone No. 45 (C45) (VHH)
VHH: B12 VHH with A40V, I112T
In turn, B14 had an OD450 of 0.115.

B15: phage clone No. 30 (C30) (VHH)
VHH: B12 VHH with A23V, P27S, S30A, T50D, T77K, T100R, I112T
B15 had an OD450 of 0.103.

B16: phage clone No. 61 (S13) (VHH)
VHH: B5 VHH with G54Y, A73N, P75K, S100T, I112T
B16: the OD450 amounted to 0.094.

B17: phage clone No. 20 (C20) (VHH)
VHH: QVQLVESGGGLVQPGGSLRLSCAASGSIFSINTMGWYRQAPGKQRELVATMHSTGSTNYADSVKGRFTISRDNAKKTVYLQMNSLEPDDTAVYYCHVDDTGWGTVDSWGQGTQVTVS
In turn, B17 showed an OD450 of 0.133.

B18: phage clone No. 66 (S18) (VHH)
VHH: QLQLVESGGGLVQPGGSLRLSCAASGSIFSINTMGWYRQAPGKQRELVATMTSHGSTNYADSVKGRFTISRDNSKNTVYLQMNSLKLQDTAVYYCNANDMGWGTVDAWGQGTLVTVSS
Consider B18, for which the OD450 was 0.081.
